Values belong to the binder of their own block, whether it stands above or below them. Bridge positions count the residues as written; N and C are the ends. Square brackets hold non-standard residues; d marks the D form. Ends that are not written are not given here. Pen = CC(C)(S)[C@H](N)C(=O)O
Assays:
soluble human FcRn [1] = target: T1, soluble human FcRn (human, UniProt P55899 24-297; P61769 21-119, biotinylated (Sulfo-NHS-LC-Biotin) in the ELISA; amine-coupled to CM5 chip in SPR); assay: ELISA, competitor human IgG
T1 construct: also called shFcRn; biotinylated shFcRn
Procedure: (§1) The wells were coated with 100 μl/well of 1 μg/ml biotinylated-shFcRn in Buffer A. The plate was sealed and incubated at 37° C. for 2 hours. Afterwards, the plate washed with 200 μl/well of Buffer B (Buffer B: 100 mM MES pH 6, 150 mM NaCl, 0.5% BSA IgG-free (Jackson ImmunoResearch, West Grove, Pa.), 0.05% Tween-20). […] To allow for mixing, the plate was rocked for 2 minutes, sealed and incubated at 37° C. for 2 hours. […] The plate was covered, incubated for 30 minutes at room temperature and washed 4 times with 200 μl/well of ice-cold buffer B. SureBlue TMB substrate solution (100 μl/well, KPL, Gaithersburg, Md.) was added and the plate was allowed to incubate at room temperature until color developed, which took 5 to 10 minutes. Once color developed, 100 μl/well of TMB stop solution (KPL, Gaithersburg, Md.) was added and the absorbance was measured at 450 nm. The data was plotted as absorbance vs. peptide concentration to derive the inhibitory concentration 50% (IC₅₀) values.

soluble human FcRn [2] = target: T1, soluble human FcRn; assay: ELISA, competitor human IgG; remark: listed apart in the source
Procedure: as §1

soluble human FcRn [3] = target: T1, soluble human FcRn; assay: ELISA, competitor human IgG; remark: listed apart in the source
Procedure: as §1

soluble human FcRn [4] = target: T1, soluble human FcRn; assay: ELISA, competitor human IgG; remark: listed apart in the source
Procedure: as §1

soluble human FcRn [5] = target: T1, soluble human FcRn; assay: ELISA, competitor human IgG; remark: listed apart in the source
Procedure: as §1

soluble human FcRn [6] = target: T1, soluble human FcRn; assay: ELISA, competitor human IgG; remark: listed apart in the source
Procedure: as §1

soluble human FcRn [7] = target: T1, soluble human FcRn; assay: SPR, pH 6
Procedure: (§2) The following steps were performed to cross-link soluble human or cynomolgus FcRn to the dextran surface of a CM5 sensor chip (Biacore AB, Uppsala, Sweden) by an amine coupling reaction involving 1-ethyl-(3-dimethylaminopropyl)-carbodiimide hydrochloride (EDC) (Biacore AB, Uppsala, Sweden) and N-hydroxysuccinimide (NHS) (Biacore AB, Uppsala, Sweden) as recommended by Biacore (BIAapplications Handbook, version AB, section 4.2, Biacore AB, Uppsala, Sweden). […] Residual sites on the FcRn flow cell were blocked with 1 M ethanolamine hydrochloride pH 8.5 (Biacore AB, Uppsala, Sweden). A control flow cell was blocked with ethanolamine for reference subtraction. For analysis of the monomeric peptides, FcRn was coated to a final density of 4000-5000 response units (RU). For analysis of the peptide dimers, FcRn was coated to a density of 2000-2500 RU. All SPR measurements were performed using a BIACORE 3000 Instrument (Biacore AB Uppsala, Sweden). For measurements done at either pH 6 or pH 7.4, experiments were performed in 50 mM phosphate, 100 mM sodium chloride, 0.01% surfactant P20 (Biacore AB, Uppsala, Sweden).
(§3) Ten, 2-fold dilutions of the peptide were injected over the FcRn-CM5 chip at a rate of 20 μl/min for 2 min. The peptide was dissociated from the chip for 2.5 minutes with buffer. […] Sensorgrams were generated and analyzed using BiaEval software version 3.1 (Biacore AB, Uppsala, Sweden). […]

soluble human FcRn [8] = target: T1, soluble human FcRn; assay: ELISA, competitor human IgG; remark: listed apart in the source
Procedure: as §1

soluble human FcRn [9] = target: T1, soluble human FcRn; assay: SPR, pH 6; remark: listed apart in the source
Procedure: as §2
(§4) Ten, 2-fold dilutions of the peptide were injected over the FcRn-CM5 chip at a rate of 20 μl/min for 2 min. The peptide was dissociated from the chip for 2.5 minutes with buffer. Any remaining peptide was removed from the chip with a 30 second injection of HBS-P buffer (Biacore AB, Uppsala, Sweden) at a rate of 30 μl/min. Sensorgrams were generated and analyzed using BiaEval software version 3.1 (Biacore AB, Uppsala, Sweden). The equilibrium RU observed for each injection was plotted against concentration. The equilibrium KD values were derived by analysis of the plots using the steady state affinity model included in the BiaEval software.

soluble human FcRn [10] = target: T1, soluble human FcRn; assay: SPR, pH 6; remark: listed apart in the source
Procedure: as §2, §3

soluble human FcRn [11] = target: T1, soluble human FcRn; assay: SPR, pH 6; remark: listed apart in the source
Procedure: as §2, §4

soluble human FcRn [12] = target: T1, soluble human FcRn; assay: ELISA, competitor human IgG; remark: listed apart in the source
Procedure: as §1

soluble human FcRn [13] = target: T1, soluble human FcRn; assay: SPR, pH 6; remark: listed apart in the source
Procedure: as §2, §4

soluble human FcRn [14] = target: T1, soluble human FcRn; assay: SPR, pH 6; remark: listed apart in the source
Procedure: as §2, §4

soluble human FcRn [15] = target: T1, soluble human FcRn; assay: SPR, pH 6; remark: listed apart in the source
Procedure: as §2, §3

soluble human FcRn [16] = target: T1, soluble human FcRn; assay: ELISA, competitor human IgG; remark: listed apart in the source
Procedure: as §1

soluble human FcRn [17] = target: T1, soluble human FcRn; assay: SPR, pH 6; remark: listed apart in the source
Procedure: as §2, §4

soluble human FcRn [18] = target: T1, soluble human FcRn; assay: SPR, pH 6; remark: listed apart in the source
soluble human FcRn [19] = target: T1, soluble human FcRn; assay: SPR, pH 6; remark: listed apart in the source
Procedure: as §2, §4

soluble human FcRn [20] = target: T1, soluble human FcRn; assay: ELISA, competitor human IgG; remark: listed apart in the source
Procedure: as §1

soluble human FcRn [21] = target: T1, soluble human FcRn; assay: SPR, pH 6; remark: listed apart in the source
Procedure: as §2, §4

soluble human FcRn [22] = target: T1, soluble human FcRn; assay: ELISA, competitor human IgG; remark: listed apart in the source
Procedure: as §1

soluble human FcRn [23] = target: T1, soluble human FcRn; assay: SPR, pH 7.4
Procedure: as §2, §3

soluble human FcRn [24] = target: T1, soluble human FcRn; assay: SPR, pH 7.4; remark: listed apart in the source
Procedure: as §2, §3

soluble human FcRn [25] = target: T1, soluble human FcRn; assay: SPR, pH 6; remark: listed apart in the source
Procedure: as §2, §3

soluble human FcRn [26] = target: T1, soluble human FcRn; assay: SPR, pH 7.4; remark: listed apart in the source
Procedure: as §2, §3

soluble human FcRn [27] = target: T1, soluble human FcRn; assay: SPR, pH 7.4; remark: listed apart in the source
Procedure: as §2, §4

soluble human FcRn [28] = target: T1, soluble human FcRn; assay: SPR, pH 6; remark: listed apart in the source
Procedure: as §2, §4

soluble human FcRn [29] = target: T1, soluble human FcRn; assay: SPR, pH 7.4; remark: listed apart in the source
Procedure: as §2, §4

soluble human FcRn [30] = target: T1, soluble human FcRn; assay: SPR, pH 7.4; remark: listed apart in the source
Procedure: as §2, §3

soluble human FcRn [31] = target: T1, soluble human FcRn; assay: SPR, pH 7.4; remark: listed apart in the source
Procedure: as §2, §4

soluble human FcRn [32] = target: T1, soluble human FcRn; assay: SPR, pH 6; remark: listed apart in the source
Procedure: as §2, §4

soluble human FcRn [33] = target: T1, soluble human FcRn; assay: SPR, pH 7.4; remark: listed apart in the source
Procedure: as §2, §4

soluble human FcRn [34] = target: T1, soluble human FcRn; assay: SPR, pH 6; remark: listed apart in the source
Procedure: as §2, §4

soluble human FcRn [35] = target: T1, soluble human FcRn; assay: SPR, pH 7.4; remark: listed apart in the source
Procedure: as §2, §3

soluble human FcRn [36] = target: T1, soluble human FcRn; assay: SPR, pH 7.4; remark: listed apart in the source
Procedure: as §2, §4

soluble human FcRn [37] = target: T1, soluble human FcRn; assay: assay not named for Table 26, taken as the IgG competition ELISA

Binder: QRFXTGHFGGLYPCNGP (Pen (L-penicillamine) at 4; disulfide; C-terminal amide) [Peptide No. 32]
IC50 (soluble human FcRn [1]): 2 µM
IC50 (soluble human FcRn [2]): 2 µM
IC50 (soluble human FcRn [3]): 2 µM
IC50 (soluble human FcRn [4]): 2 µM
IC50 (soluble human FcRn [5]): 2 µM
IC50 (soluble human FcRn [6]): 2 µM
Kd (soluble human FcRn [7]): 0.25 µM
IC50 (soluble human FcRn [8]): 2 µM
Kd (soluble human FcRn [9]): 0.25 µM
Kd (soluble human FcRn [10]): 0.25 µM
Kd (soluble human FcRn [11]): 0.25 µM
IC50 (soluble human FcRn [12]): 2 µM
Kd (soluble human FcRn [13]): 0.25 µM
Kd (soluble human FcRn [14]): 0.25 µM
Kd (soluble human FcRn [15]): 0.25 µM
IC50 (soluble human FcRn [16]): 2 µM
Kd (soluble human FcRn [17]): 0.25 µM
Kd (soluble human FcRn [18]): 0.25 µM
Kd (soluble human FcRn [19]): 0.25 µM
IC50 (soluble human FcRn [20]): 2 µM
Kd (soluble human FcRn [21]): 0.25 µM
IC50 (soluble human FcRn [22]): 2 µM

Binder: QRFXTGHFGGHYPCNGP (Pen at 4; disulfide; C-terminal amide) [Peptide No. 84]
Kd (soluble human FcRn [23]): 2.5 µM
Kd (soluble human FcRn [17]): 0.38 µM

B2: Peptide No. 289 (peptide)
peptide: RFXTGHFGGLYPC
modifications: not fully specified; Pen at 3; Sar at 9; NMeLeu at 10; intrachain disulfide; C-terminal amide; N-termini joined by an Asp linker that carries PEG 30 kDa
notes: structure only as drawing CHEM-US-00138; also called Pegylated Analog of Peptide No. 285
IC50 (soluble human FcRn [37]): 0.018 µM

Results, then the binder that gave them:

Kd (soluble human FcRn [9]): 0.15 µM
Kd (soluble human FcRn [24]): 0.96 µM
IC50 (soluble human FcRn [20]): 3 µM
B1: Peptide No. 296 (peptide)
peptide: QRF[Pen]HGHFGGLYPCNGP-NH2
modifications: disulfide 4-14; N-terminus assumed
SMILES: CC(C)C[C@@H]1NC(=O)CNC(=O)CNC(=O)[C@H](Cc2ccccc2)NC(=O)[C@H](Cc2c[nH]cn2)NC(=O)CNC(=O)[C@H](Cc2c[nH]cn2)NC(=O)[C@@H](NC(=O)[C@H](Cc2ccccc2)NC(=O)[C@H](CCCNC(=N)N)NC(=O)[C@@H](N)CCC(N)=O)C(C)(C)SSC[C@@H](C(=O)N[C@@H](CC(N)=O)C(=O)NCC(=O)N2CCC[C@H]2C(N)=O)NC(=O)[C@@H]2CCCN2C(=O)[C@H](Cc2ccc(O)cc2)NC1=O

Kd (soluble human FcRn [25]): 5.1 µM
Kd (soluble human FcRn [26]): 30 µM
Kd (soluble human FcRn [11]): 5.1 µM
Kd (soluble human FcRn [27]): 30 µM
Kd (soluble human FcRn [28]): 5.1 µM
Kd (soluble human FcRn [13]): 5.1 µM
Kd (soluble human FcRn [18]): 5.1 µM
Kd (soluble human FcRn [19]): 5.1 µM
Kd (soluble human FcRn [29]): 30 µM
Kd (soluble human FcRn [30]): 30 µM
Kd (soluble human FcRn [31]): 30 µM
Kd (soluble human FcRn [32]): 5.1 µM
Kd (soluble human FcRn [33]): 30 µM
Kd (soluble human FcRn [34]): 5.1 µM
Kd (soluble human FcRn [35]): 30 µM
Kd (soluble human FcRn [36]): 30 µM
Binder: QRFCTGHFGGLYPCNGP-NH2 (disulfide 4-14 (inferred)) [SEQ ID NO:1]
